Laboratory results taken from article PMC5300155, “Biochemical and biophysical investigations of the interaction between human glucokinase and pro-apoptotic BAD” (PLoS ONE, 2017).
Primed or numbered codes have the meaning given here. No end group written: not given here. FITC′ = fluorescein isothiocyanate label

How the values were obtained:
[1] = target: recombinant human BAD-GST fusion polypeptide (human) (UniProt Q92934); experiment: SEC; HiPrep 16/60 Sephacryl S-200 HR, calibrated; single proteins or equimolar mixtures incubated on ice 30 min; BAD buffer pH 8.5; 4°C
[2] = target: recombinant human pancreatic glucokinase (human) (UniProt P35557)
[3] = target: recombinant human BAD-GST fusion polypeptide (human) (UniProt Q92934); experiment: AUC; sedimentation velocity; single proteins or 1:1 molar mixtures incubated on ice 30 min; BAD buffer pH 8.5; 20°C
[4] = target: recombinant human Bcl-xL, Δ45–84, Δ210–233 variant (human) (UniProt Q07817); experiment: fluorescence polarisation; competition: 200 nM f-BH3, 50 nM Bcl-xL, BAD forms varied 0–50 μM; room temperature
[5] = target: recombinant human BAD-GST fusion polypeptide (human) (UniProt Q92934); experiment: ITC; Bcl-xL (100 μM) titrated in 4 μL injections into BAD-GST (10–18 μM) in the cell; 25°C; BAD buffer (0.1 M Tris, 0.1 M KCl, 0.5 M arginine, 2.5 mM CHAPS, 5 mM TCEP, 10% glycerol, pH 8.5)
[6] = target: GST; experiment: AUC; sedimentation velocity; single proteins or 1:1 molar mixtures incubated on ice 30 min; BAD buffer pH 8.5; 20°C
[7] = target: recombinant human pancreatic glucokinase (human) (UniProt P35557); remark: listed apart in the source
[8] = target: recombinant human pancreatic glucokinase (human) (UniProt P35557); remark: listed apart in the source
[9] = Circular dichroism spectroscopy (secondary structure); type: physicochemical; settings: far UV CD, 25°C, pH 7.8, 3–15 μM, CDPro
Experimental: Proteins were dialyzed overnight into potassium phosphate buffer (50 mM, pH 7.8) containing KCl (50 mM), glycerol (5% v/v), and TCEP (4 mM). CD spectra were recorded on an AVIV 202 CD spectrometer at 25°C with protein concentrations ranging from 3–15 μM. Spectra were recorded from 200–260 nm in 10 mm pathlength cuvettes using a 1 nm step resolution and 3 s integration time. Three scans were recorded per sample, averaged, and baseline subtracted with appropriate buffer controls. CD signals were converted to molar ellipticity and deconvoluted using CDPro Software.

[10] = target: T1, Bcl-xL (Homo sapiens, UniProt Q07817, DEL45-84); experiment: Analytical ultracentrifugation sedimentation velocity of 1:1 mixture BAD-GST and Bcl-xL; type: binding; settings: 1:1 mixture of BAD-GST and Bcl-xL, 20°C, 50,000 x g, BAD buffer pH 8.5
T1 construct: made in house
Experimental: Sedimentation velocity experiments were conducted with an Optima XLI Ultracentrifuge (Beckman Coulter) using a four-hole rotor with three 420 μL samples in standard double-sector Epon centerpieces equipped with sapphire windows. Absorbance and interference data were collected simultaneously. Size-exclusion purified proteins were concentrated to OD280 nm = 0.3–1.0 prior to centrifugation. For complex formation, proteins were mixed in a 1:1 molar ratio in BAD buffer (0.1 M Tris, 0.1 M KCl, 0.5 M arginine, 2.5 mM CHAPS, 5 mM TCEP, 10% glycerol, pH 8.5) and incubated on ice 30 min prior to the start of the experiment. Experiments were carried out at 20°C and 50,000 x g. Data were analyzed with Ultrascan III software using a minimum of 70 scans per sample for analysis. Van Holde-Weischet analysis was performed to obtain S20,W values.

[11] = system: BAD-knockout hepatocytes; settings: ref [9]; cited from earlier work
Text: Phosphorylation of BAD modulates its participation in apoptosis and glucose metabolism. High glucose concentrations stimulate BAD phosphorylation at three serine residues, resulting in reduced pro-apoptotic activity. In particular, phosphorylation at Ser155, within the BH3 domain of murine BAD, prevents interaction with Bcl-xL, thereby quenching BAD’s apoptotic activity. […] Moreover, i ...

[12] = target: T2, recombinant human Bcl-xL, Δ45–84, Δ210–233 variant (human, UniProt Q07817-1 1-209, Δ45–84); experiment: fluorescence polarisation; 15 nM FITC peptide, Bcl-xL varied 0–2.25 μM; BAD buffer mixed with phosphate assay buffer pH 7.4; room temperature; settings: both partners purified
T2 construct: Bcl-xL, human; loop 45-84 deleted and C-terminal residues 210-233 lacking; also called soluble, recombinant Bcl-xL

Which stoichiometry N [1] does the source give for “recombinant human BAD-GST fusion polypeptide (from UniProt Q92934 1-168) (natural protein)” here?
Its stoichiometry N is 2.

What about the percent increase in GCK rate, glucose 0.5–1.0 mM, largest at 0.8 mM glucose with BAD-GST ≥ 2 μM [2] of the same molecule?
The percent increase in GCK rate, glucose 0.5–1.0 mM, largest at 0.8 mM glucose with BAD-GST ≥ 2 μM was 10%.

And the stoichiometry N [3]?
The stoichiometry N was 2.

And the IC50 [4]?
The IC50 was 130 nM.

For “recombinant human Bcl-xL, Δ45–84, Δ210–233 variant (from UniProt Q07817-1 1-209) (domain or fragment)”, which Kd [5] is on record?
The Kd was 7 nM.

And the stoichiometry N (Bcl-xL per BAD-GST dimer) [3]?
Its stoichiometry N (Bcl-xL per BAD-GST dimer) is 2.

Which stoichiometry N [6] does the source give for GST (natural protein) here?
Its stoichiometry N is 2.

With “BAD-GST phosphorylated in vitro with PKAc (from UniProt Q92934 1-168) (natural protein)” as the molecule, how does the increase in GCK activity over unmodified BAD-GST at 1.0 mM glucose [7] read?
The increase in GCK activity over unmodified BAD-GST at 1.0 mM glucose was 5%.

What about the increase in GCK activity at glucose below the K0.5 value with phosphorylated BAD (> 2 μM) [8] of the same molecule?
Its increase in GCK activity at glucose below the K0.5 value with phosphorylated BAD (> 2 μM) is 15%.

And the IC50 [4]?
The IC50 was 1600 nM.

B1: Bcl-xL: recombinant human Bcl-xL Δ45–84, Δ210–233 variant (protein)
chain: MSQSNRELVVDFLSYKLSQKGYSWSQFSDVEENRTEAPEGTESEAVKQALREAGDEFELRYRRAFSDLTSQLHITPGTAYQSFEQVVNELFRDGVNWGRIVAFFSFGGALCVESVDKEMQVLVSRIAAWMATYLNDHLEPWIQENGGWDTFVELYGNNAAAESRKGQER
modifications: left off: His tag (from the nickel affinity chromatography), end not stated, state not stated
notes: recombinant human Bcl-xL Δ45–84, Δ210–233 variant
With B1 as the molecule, how does the Random coil content [9] read?
The Random coil content was “roughly 30%”.

And the α-helical content [9]?
The α-helical content was 43%.

And the β-sheet content [9]?
The β-sheet content was 14%.

What about the Sedimentation coefficient [10] of the same molecule?
Its Sedimentation coefficient is 1.3.

B2: S155D BAD variant: phosphomimic murine BAD variant, ref 9 (protein, UniProt Q61337 1-204, looked up, variant S155D)
Bcl2-associated agonist of …: MGTPKQPSLAPAHALGLRKSDPGIRSLGSDAGGRRWRPAAQSMFQIPEFEPSEQEDASATDRGLGPSLTEDQPGPYLAPGLLGSNIHQQGRAATNSHHGGAGAMETRSRHSSYPAGTEEDEGMEEELSPFRGRSRSAPPNLWAAQRYGRELRRMDDEFEGSFKGLPRPKSAGTATQMRQSAGWTRIIQSWWDRNLGKGGSTPSQ
Which “Effect on GCK activity in hepatocytes” value [11] does the source give for B2 here?
Its value is “stimulates GCK activity in hepatocytes”.

What about the “Restoration of normal glycolytic metabolism in BAD-knockout hepatocytes” value [11] of the same molecule?
The value was “normal glycolytic metabolism can be restored”.

B3: FITC-labeled 21-residue peptide containing the BH3 domain of BAD (peptide)
peptide: NLWAAQRYGRELRRMSDK(FITC′)FVD
notes: BH3 domain of BAD, human; also called f-BH3; fluorescent BH3 peptide; source: synthetic peptide (Peptide2.0, >95%)
For B3, which Kd [12] is on record?
The Kd was 180 nM.
